Values quoted from earlier work in PMC5519506 (Molecular pharmaceutics, 2016).
Where two headings read alike, the source gives them in different places.

Tests used:
[1] = fibronectin; ref [28]; cited from earlier work
[2] = test system: EGFR^high tumor; conditions: ref [28], cited from earlier work; for tumor:muscle ratio / tumor:blood ratio: fibronectin

## fibronectin
[1]
  clearance half-time: 2.1 ± 0.3 min
[2]; 1 h, second of two values
  tumor accumulation: 2.4 ± 1.0 %ID/g
[2]; 1 h
  tumor accumulation: 3.4 ± 1.0 %ID/g
  tumor:blood ratio: 8.9 ± 4.7
[2]; 1 h, PET
  tumor:muscle ratio: 8.6 ± 3.0
[2]; 1 h, excised tissue
  tumor:muscle ratio: 10 ± 4
[2]; 4 h, excised tissue
  tumor:muscle ratio: 4.2 ± 1.3
[2]; 4 h
  tumor:blood ratio: 6.4 ± 4.3
